Data on one substance can be found in publication PMC4778124, “A continuous sirtuin activity assay without any coupling to enzymatic or chemical reactions” (Scientific Reports, 2016).

Values joined by “and” are separate entries in the source; they are usually repeats but may differ in a detail not shown here. Identical values can stand only once.

What all share (type): biochemical, human
Series [1] relates to T1, CC(=O)N[C@@H](CCC(=O)O)C(=O)N[C@@H](C)C(=O)N[C@@H](CC(C)C)C(=O)N1CCC[C@H]1C(=O)N[C@@H](CCCCN)C(=O)N[C@@H](CCCCNC(=O)CCCCCCCCCCNC(=O)c1ccccc1N)C(=O)N[C@@H](Cc1ccc(O)c([N+](=O)[O-])c1)C(=O)NCC(=O)NCC(N)=O.
T1 construct: His-tag; made in house; host or cells: E. coli BL21 DE3
Put plainly: Continuous fluorescence assay, substrate kinetics. The conditions noted are these: other: Sirt6 500 nM; fluorescence spectrophotometer (footnote a); 37.0 °C. The procedure:
The fluorescence measurements were performed on a Hitachi F-4500 fluorescence spectrophotometer (Tokyo, Japan) at λEx = 310 nm and λEm = 405 nm (slitEx = 5 nm, slitEm = 2.5 nm, PMT = 700 V for 3, 4 and 5 as well as slitEx = 10 nm, slitEm = 10 nm, PMT = 950 V for 4a). Each reaction mixture contained assay-buffer, 0.5 mM NAD^+ and various peptide concentrations (0.1–100 μM) and was preincubated for 5 minutes at 37 °C. The reaction was started by adding human sirtuin (0.1–0.5 μM) and observed for 5–10 minutes. Product formation could be monitored by increase of relative fluorescence. This signal was converted into product concentration via calibration lines. […] The reaction mixture was analyzed with HPLC, to control if the entire peptide substrate was turned to product. Additionally the mixture was diluted (0.1–25 μM) and measured with Hitachi F-4500 fluorescence spectrophotometer at the same conditions as described above.
The microtiter plate fluorescence measurements were performed on a Tecan Infinite M200 microplate reader (Maennedorf, Switzerland) at λEx = 320 nm and λEm = 408 nm (lag time 9 μs, integration time […], gain 160, 170 or 182). The reactions (total volume 100 μl) were measured in black low-binding 96-well microtiter plates (NUNC). […] The reaction mixture for the calibration lines was prepared as described for the single fluorescence measurements. […]

The test system of series [2] is T2, CCCCCCCCCCCCCC(=O)NCCCC[C@H](NC(=O)[C@H](CCCCN)NC(=O)[C@@H]1CCCN1C(=O)[C@H](CC(C)C)NC(=O)[C@H](C)NC(=O)[C@H](CCC(=O)O)NC(C)=O)C(=O)N[C@@H](Cc1ccc(O)c([N+](=O)[O-])c1)C(=O)NCC(=O)NCC(N)=O.
T2 construct: His-tag; made in house; host or cells: E. coli BL21 DE3
Briefly: HPLC based activity assay. Particulars: other: HPLC; Sirt6 0.5 µM; pH 7.8; 37.0 °C. Here is the method:
(§1) For the determination of kinetic constants for all sirtuin mediated reactions solutions containing 20 mM TRIS/HCl pH 7.8, 150 mM NaCl, 5 mM MgCl2 (assay-buffer), 500 μM NAD^+ and varying substrate concentrations (0.5–100 μM) were used. Deacylation was started by adding human sirtuin to reach a final concentration of 0.01–0.5 μM. Enzyme-catalyzed reaction was stopped using TFA (1% final concentration) after 1 min to 180 min of incubation at 37 °C depending on substrate reactivity. The cleavage rate of the different TNFα peptide derivatives was analyzed using analytical reversed phase HPLC. 40 to 80 μl of compounds or reaction solutions were injected and separated using a linear gradient from 5% to 95% solvent B within 6min. The product and substrate peaks were quantified using absorbance at 220 nm or 365 nm (absorption of 3-Nitrotyrosyl moiety). The peak areas were integrated and converted to initial velocity rates calculated from the ratio of product area to total peak area. Linear regression of conversions plotted against time yielded reaction rates in μM/min (relative conversion below 20% of substrate). Non-linear regression according to Michaelis-Menten of the reaction rates at different substrate concentrations yielded KM- and kcat-values using the program SigmaPlot 8 (Systat Software, San Jose, USA). All measurements were done in duplicates. […]

For series [3], the system named is T1, CC(=O)N[C@@H](CCC(=O)O)C(=O)N[C@@H](C)C(=O)N[C@@H](CC(C)C)C(=O)N1CCC[C@H]1C(=O)N[C@@H](CCCCN)C(=O)N[C@@H](CCCCNC(=O)CCCCCCCCCCNC(=O)c1ccccc1N)C(=O)N[C@@H](Cc1ccc(O)c([N+](=O)[O-])c1)C(=O)NCC(=O)NCC(N)=O. Briefly: HPLC based activity assay. Particulars: other: HPLC; Sirt6 0.5 µM; pH 7.8; 37.0 °C. Here is the method:
as §1

Series [4] has as its system T3, CCCCCCCCCCCCCC(=O)NCCCC[C@H](NC(=O)[C@H](CCCCN)NC(=O)[C@@H]1CCCN1C(=O)[C@H](CC(C)C)NC(=O)[C@H](C)NC(=O)[C@H](CCC(=O)O)NC(C)=O)C(=O)N[C@H](C(=O)NCC(=O)NCC(N)=O)[C@@H](C)O.
T3 construct: His-tag; made in house; host or cells: E. coli BL21 DE3
Briefly: HPLC based activity assay. Particulars: other: HPLC; Sirt6 0.5 µM; pH 7.8; 37.0 °C. Here is the method: as §1

The term Km denotes the substrate concentration at which the rate is half of its maximum. The kcat/Km is the second-order rate constant that governs catalysis at low substrate concentration. Sirt6 (Homo sapiens): the Km in series [1] is 23.5 ± 4.9 µM; in series [2] it was 17 µM and 17.3 ± 2.6 µM; in series [3], 18.3 ± 4.4 µM; in series [4], 6 µM and 5.7 ± 1.3 µM. The kcat/Km in series [1] is 39 M⁻¹ s⁻¹; in series [2], 2.81∙10^2 M^-1s^-1; in series [3] it was 45.00 M⁻¹ s⁻¹; in series [4], 8.25∙10^2 M^-1s^-1. Also, the values for the kcat in series [2], in series [3] and in series [4] were 4.9∙10^-3 ± 0.2∙10^-3 s^-1, 8.3∙10^-4 ± 0.7∙10^-4 s^-1 and 4.7∙10^-3 ± 0.3∙10^-3 s^-1, respectively.
